Results taken from patent US20090155873A1, “BIOFUEL PRODUCTION” (BIO ARCHITECTURE LAB, INC., priority 2007, published 2009).

Experiments:
Type in all cases: biochemical
[1] = Assay for DEHU hydrogenase (NADPH dependent DEHU hydrogenation); conditions: cell lysate, absorbance at 340 nm for 30 min, FIG. 7A
Protocol: To identify DEHU hydrogenase, a NADPH dependent DEHU hydrogenation assay was performed. 20 μl of prepared cell lysate containing each ADH was added to 160 μl of 20-fold deluted DEHU solution prepared in the above section. 20 μl of 2.5 mg/ml of NADPH solution (20 mM Tris-HCl, pH 8.0) was added to initiate the hydrogenation reaction, as a preliminary study using cell lysate of A. tumefaciens C58 have shown that DEHU hydrogenation requires NADPH as a co-factor. The consumption of NADPH was monitored an absorbance at 340 nm for 30 min using the kinetic mode of ThermoMAX 96 well plate reader (Molecular Devises). E. coli cell lysate containing alcohol dehydrogenase (ADH) 10 lacking a portion of N-terminal domain was used in a control reaction mixture.

[2] = In vitro pyruvate formation from alginate or mannuronate; conditions: purified enzyme ~5 ug, over night, pyruvate assay kit, FIG. 6B and 6C
[3] = Sequential reaction of diol dehydrogenase and diol dehydratase on butyroin (GC-MS); conditions: 37° C., 40 hours, NADH, coenzyme B12, GC-MS, FIGS. 26-27
Protocol: Diol dehydrogenase ddh from Klebsiella pneumoniae MGH 78578 and diol dehydratase pduCDE from Klebsiella pneumoniae MGH 78578 were cloned into a bacterial expression vector and expressed and purified on a Ni-NTA column, as described in Example X except that 1 mM of 1,2-propanediol was added at all time during the expression and purification of diol dehydratase. The large, medium, and small subunits of the pduCDE polypeptide are encoded by the nucleotide sequences of SEQ ID NOs:103, 105, and 107, respectively, and the polypeptide sequence are set forth in SEQ ID NOs: 104, 106, and 108, respectively.
The ddh3 and pduCDE polypeptides were incubated with butyroin and their appropriate cofactors, then assayed using gas chromatography-mass spectrometry (GC-MS) for their ability to perform sequential reactions resulting in the product 4-octanone. The reaction mixture was incubated at 37° C. for 40 hours in a 0.6 mL eppendorf tube with minimal head space. The reaction product was extracted with an equivalent volume of ethyl acetate, stored in a glass vial, and sent to Thermo Fischer Scientific Instruments Division for compositional analysis by GC-MS.

[4] = NADPH Production Assay (oxidation of 4-octanol); conditions: NADP+, 30° C., FIG. 30B
Protocol: Various secondary alcohol dehydrogenases (2ADHs) were isolated from Pseudomonas putida KT2440, Pseudomonas fluorescens Pf-5, and Klebsiella pneumoniae MGH 78578. All vectors were transformed in BL21(DE3) competent cells and expression of the genes encoding the proteins of interest was induced with IPTG (via the T7 promoter). The cells were lysed, proteins were extracted and then purified on Ni-NTA columns. Final protein concentration in the Ni-NTA eluate was diluted to 0.15 mg/mL prior to assays.
[…] consumption and production assays were performed using a THERMOmax microplate reader in the kinetic mode, monitoring the NADPH absorbance peak at 340 nm until the reaction reached equilibrium. […] These reaction conditions are found in Table 4 below.

B1: ADH2: alcohol dehydrogenase ADH2 Atu2022 isolated from Agrobacterium tumefaciens C58, SEQ ID NO:72 (protein)
chain: MAIARGYAATDASKPLTPFTFERREPNDDDVVIDIKYAGICHSDIHTVRNEWHNAVYPIVPGHEIAGVVRAVGSKVTRFKVGDHVGVGCFVDSCVGCATRDVDNEQYMPGLVQTYNSVERDGKSATQGGYSDHIVVREDYVLSIPDNLPLDASAPLLCAGITLYSPLQHWNAGPGKKVAIVGMGGLGHMGVKIGSAMGADITVLSQTLSKKEDGLKLGAKEYYATSDASTFEKLAGTFDLILCTVSAEIDWNAYLNLLKVNGTMVLLGVPEHAIPVHAFSVIPARRSLAGSMIGSIKETQEMLDFCGKHDIVSEIETIGIKDVNEAYERVLKSDVRYRFVIDMASLDA
modifications: Agrobacterium tumefaciens C58
- DEHU hydrogenase activity monitored by NADPH consumption [1]: significant DEHU hydrogenase activity

B2: Atu3027 (ADH11): alcohol dehydrogenase ADH11 Atu3027 isolated from Agrobacterium tumefaciens C58, SEQ ID NO:90 (protein)
chain: MRSELPEGFFGPREWARLNAVADIIPGFPHTDFDTANGAEALAEADILLAAWGTPSLTRERLSRAPRLKMLAYAASSVRMVAPAEFWETSDILVTTAASAMAVPVAEFTYAAIIMCGKDVFRLRDEHRTERGTGVFGSRRGRSLPYLGNHARKVGIVGASRIGRLVMEMLARGTFEIAVYDPFLSAEEAASLGAKKAELDELLAWSDVVSLHAPILPETHHMIGARELALMADHAIFINTARGWLVDHDALLTEAISGRLRILIDTPEPEPLPTDSPFYDLPNVVLTPHIAGALGNELRALSDLAITEIERFVAGLAPLHPVHKQDMERMA
modifications: Agrobacterium tumefaciens C58
- catalysis of DEHU hydrogenase and mannuronate hydrogenase reactions in pyruvate formation from alginate [2]: capable of catalyzing both DEHU hydrogenase and mannuronate hydrogenase reactions

B3: pduCDE: diol dehydratase from Klebsiella pneumoniae MGH 78578, subunits SEQ ID NOs:104, 106, 108 (protein)
chain 1: MRSKRFEALAKRPVNQDGFVKEWIEEGFIAMESPNDPKPSIRIVNGAVTELDDKPVEQFDLIDHFIARYGINLARAEEVMAMDSVKLANMLCDPNVKRSDIVPLTTAMTPAKIVEVVSHMNVVEMMMAMQKMRARRTPSQQAHVTNIKDNPVQIAADAAEGAWRGFDEQETTVAVARYAPFNAIALLVGSQVGRPGVLTQCSLEEATELKLGMLGHTCYAETISVYGTEPVFTDGDDTPWSKGFLASSYASRGLKMRFTSGSGSEVQMGYAEGKSMLYLEARCIYITKAAGVQGLQNGSVSCIGVPSAVPSGIRAVLAENLICSALDLECASSNDQTFTHSDMRRTARLLMQFLPGTDFISSGYSAVPNYDNMFAGSNEDAEDFDDYNVIQRDLKVDGGLRPVREEDVIAIRNKAARALQAVFAGMGLPPITDEEVEAATYAHGSKDMPERNIVEDIKFAQEIINKNRNGLEVVKALAKGGFPDVAQDMLNIQKAKLTGDYLHTSAIIVGEGQVLSAVNDVNDYAGPATGYRLQGERWEEIKNIPGALDPNELG
chain 2: MEINETLLRQIIEEVLSEMKSGADKPVSFSAPAASVASAAPVAVAPVSGDSFLTEIGEAKPGTQQDEVIIAVGPAFGLAQTANIVGIPHKNILREVIAGIEEEGIKARVIRCFKSSDVAFVAVEGNRLSGSGISIGIQSKGTTVIHQRGLPPLSNLELFPQAPLLTLETYRQIGKNAARYAKRESPQPVPTLNDQMARPKYQAKSAILHIKETKYVVTGKNPQELRVAL
chain 3: MNTDAIESMVRDVLSRMNSLQDGITPAPAAPTNDTVRQPKVSDYPLATRHPEWVKTATNKTLDDLTLENVLSDRVTAQDMRITPETLRMQAAIAQDAGRDRLAMNFERAAELTAVPDDRILEIYNALRPYRSTQAELLAIADDLEHRYQARLCAAFVREAAGLYIERKKLKGDD
modifications: Klebsiella pneumoniae MGH78578
- product formed from butyroin by sequential reactions [3]: 4-octanone was produced from butyroin

B4: 2ADH-10: secondary alcohol dehydrogenase isolated from Pseudomonas putida KT2440, SEQ ID NO:128 (protein)
chain: MSKTHLFDLDGKIAFVSGASRGIGEAIAHLLAQQGAHVIVSSRKLDGCQQVADAIIAAGGKATAVACHIGELEQIQQVFAGIREQFGRLDVLVNNAATNPQFCNVLDTDPGAFQKTVDVNIRGYFFMSVEAGKLMRENGGGSIINVASINGVSPGLFQGIYSVTKAAVINMTKVFAKECAPFGIRCNALLPGLTDTKFASALVKNEAILNAALQQIPLKRVADPKEMAGAVLYLASDASSYTTGTTLNVDGGFLS
modifications: Pseudomonas putida KT2440
- oxidation of 4-octanol measured by NADPH production [4]: catalyze the oxidation of 4-octanol in the presence of NADP+

B5: ADH1: alcohol dehydrogenase ADH1 Atu1557 isolated from Agrobacterium tumefaciens C58, SEQ ID NO:70 (protein)
chain: MFTTSAYACDDGSSPMKLATIRRRDPGPRDVEIEIEFCGVCHSDIHTARSEWPGSLYPCVPGHEIVGRVGRVGAQVTRFKTGDRVGVGCIVDSCRECASCAEGLEQYCENGMTGTYNSPDKAMGGGAHTLGGYSAHVVVDDRYVLNIPEGLDPAAAAPLLCAGITTYSPLRHWNAGPGKRVGVVGLGGLGHMAVKLANAMGATVVMITTSPGKAEDAKKLGAHEVIISRDAEQMKKATSSLDLIIDAVAADHDIDAYLALLKRDGALVQVGAPEKPLSVMAFSLIPGRKTFAGSMIGGIPETQEMLDFCAEKGIAGEIEMIDIDQINDAYERMIKSDVRYRFVIDMKSLPRQKAA
modifications: Agrobacterium tumefaciens C58
- DEHU hydrogenase activity monitored by NADPH consumption [1]: significant DEHU hydrogenase activity

B6: ddh3: diol dehydrogenase isolated from Klebsiella pneumoniae MGH78578, SEQ ID NO:102 (protein)
chain: MKKVALVTGAGQGIGKAIALRLVKDGFAVAIADYNDATAKAVASEINQAGGHAVAVKVDVSDRDQVFAAVEQARKTLGGFDVIVNNAGVAPSTPIESITPEIVDKVYNINVKGVIWGIQAAVEAFKKEGHGGKIINACSQAGHVGNPELAVYSSSKFAVRGLTQTAARDLAPLGITVNGYCPGIVKTPMWAEIDRQVSEAAGKPLGYGTAEFAKRITLGRLSEPEDVAACVSYLASPDSDYMTGQSLLIDGGMVFN
modifications: Klebsiella pneumoniae MGH78578
- product formed from butyroin by sequential reactions [3]: 4-octanone was produced from butyroin

B7: Atu3026 (ADH12): alcohol dehydrogenase ADH12 Atu3026 isolated from Agrobacterium tumefaciens C58, SEQ ID NO:92 (protein)
chain: MQRFTNRTIVVAGAGRDIGRACAIRFAQEGANVVLTYNGAAEGAATAVAEIEKLGRSALAIKADLTNAAEVEAAISAAADKFGEIHGLVHVAGGLIARKTIAEMDEAFWHQVLDVNLTSLFLTAKTALPKMAKGGAIVTFSSQAGRDGGGPGALAYATSKGAVMTFTRGLAKEVGPKIRVNAVCPGMISTTFHDTFTKPEVRERVAGATSLKREGSSEDVAGLVAFLASDDAAYVTGACYDINGGVLFS
modifications: Agrobacterium tumefaciens C58
- catalysis of DEHU hydrogenase and mannuronate hydrogenase reactions in pyruvate formation from alginate [2]: capable of catalyzing both DEHU hydrogenase and mannuronate hydrogenase reactions
